Positions count from the first letter of the chain named. Numbers in names are those of the source.
Legend:
[1] = target: T1, monomeric RANK (monomeric fragment of RANK) (UniProt O35305 31-214, limits assumed); experiment: yeast surface display, flow cytometry titration (FIG. 13)
T1 construct: The monomeric RANK of the SPR and the RANK-6xHis of the yeast display are treated here as one molecule; also called RANK-6xHis; RANK-6His
T1 sequence (looked up): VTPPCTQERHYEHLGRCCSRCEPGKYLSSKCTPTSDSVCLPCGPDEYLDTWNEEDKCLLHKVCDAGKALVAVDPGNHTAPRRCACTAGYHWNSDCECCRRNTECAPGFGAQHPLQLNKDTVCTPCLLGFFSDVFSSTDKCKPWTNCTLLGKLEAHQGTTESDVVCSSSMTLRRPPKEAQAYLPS

[2] = target: T2, monomeric OPG (monomeric fragment of OPG) (UniProt O08712 22-197, limits assumed); experiment: yeast surface display, flow cytometry titration (FIG. 13A)
T2 construct: also called OPG-6xHis; unlabeled OPG
T2 sequence (looked up): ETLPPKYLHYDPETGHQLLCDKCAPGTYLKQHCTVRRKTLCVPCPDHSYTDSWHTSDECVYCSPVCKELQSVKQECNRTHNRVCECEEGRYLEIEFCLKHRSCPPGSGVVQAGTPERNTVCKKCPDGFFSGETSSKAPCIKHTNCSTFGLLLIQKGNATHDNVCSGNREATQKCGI

[3] = target: T3, monomeric RANK (monomeric fragment of RANK) (UniProt O35305 31-214); experiment: yeast surface display titration
T3 chain: T1 sequence (looked up)

[4] = target: T4, monomeric OPG (monomeric fragment of OPG) (UniProt O08712 22-197); experiment: yeast surface display titration
T4 chain: T2 sequence (looked up)

[5] = target: T2, monomeric OPG (monomeric fragment of …); experiment: SPR (FIG. 11)
[6] = target: T4, monomeric OPG (monomeric fragment of …); experiment: SPR
[7] = target: T4, monomeric OPG (monomeric fragment of …); experiment: SPR
[8] = target: T3, monomeric RANK (monomeric fragment of …); experiment: SPR
[9] = target: T3, monomeric RANK (monomeric fragment of …); experiment: SPR
[10] = target: T1, monomeric RANK (monomeric fragment of …); experiment: SPR, htRANKL coupled to the chip, monomeric RANK as analyte (FIG. 3C)
[11] = target: T2, monomeric OPG (monomeric fragment of …); experiment: yeast surface display, flow cytometry titration (FIG. 3B)
[12] = target: T1, monomeric RANK (monomeric fragment of …); experiment: SPR, htRANKL variant coupled to the chip, monomeric RANK as analyte (FIG. 3C)
[13] = target: T5, RANK on mouse bone marrow macrophages (BMMs) (mouse, UniProt O35305 31-625); experiment: cell-based or functional assay
T5 sequence (looked up): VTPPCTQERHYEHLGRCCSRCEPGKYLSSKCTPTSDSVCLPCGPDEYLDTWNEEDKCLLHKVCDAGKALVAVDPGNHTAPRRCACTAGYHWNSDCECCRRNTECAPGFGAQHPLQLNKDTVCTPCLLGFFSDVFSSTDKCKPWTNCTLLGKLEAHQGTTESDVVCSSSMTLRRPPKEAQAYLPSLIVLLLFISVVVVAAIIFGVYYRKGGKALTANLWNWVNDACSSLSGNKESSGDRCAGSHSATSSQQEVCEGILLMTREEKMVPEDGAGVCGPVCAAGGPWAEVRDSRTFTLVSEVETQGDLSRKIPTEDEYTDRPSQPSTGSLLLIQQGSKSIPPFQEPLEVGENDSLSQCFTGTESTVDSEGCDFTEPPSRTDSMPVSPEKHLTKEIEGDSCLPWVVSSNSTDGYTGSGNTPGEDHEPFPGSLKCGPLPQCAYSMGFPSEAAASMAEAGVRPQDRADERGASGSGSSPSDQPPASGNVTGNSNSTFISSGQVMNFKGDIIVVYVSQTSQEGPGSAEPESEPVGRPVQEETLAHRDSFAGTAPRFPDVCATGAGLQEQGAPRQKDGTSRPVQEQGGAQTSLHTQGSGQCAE

B1: CDins/Q236H htRANKL (CDins combined with the Q236H mutation) (ligand)
chain: QPFAHLTINAASIPSGSHKVTLSSWYHDRGWAKISNMTLSNGKLRVNQDGFYYLYANISFRGGSHHETSGSVPTDYLHLMVYVVKTSEKIPSSHNLMKGGSTKNWSGNSEFHFYSINVGGFFKLRAGEEISIQVSNPSLLDPDQDATYFGAFKVQDID
notes: also called variant RANKL that combined CDins with the Q236H mutation
[1]
  binding result: no binding
[2]
  binding result: no binding

B2: K/Q (protein)
chain: MRRASRDYGKYLRSSEEMGSGPGVPHEGPLHPAPSAPAPAPPPAASRSMFLALLGLGLGQVVCSIALFLYFRAQMDPNRISEDSTHCFYRILRLHENADLQDSTLESEDTLPDSCRRMKQAFQGAVQKELQHIVGPQRFSGAPAMMEGSWLDVAQRGKPEAQPFAHLTINAASIPSGSHKVTLSSWYHDRGWAEISNMTLSNGKLRVNQDGFYYLYANICFRHHETSGSVPTDYLHLMVYVVKTSIKIPSSHNLMKGGSTKNWSGNSEFHFYSINVGGFFKLRAGEEISIQVSNPSLLDPDQDATYFGAFKVQDID
[3]
  Kd: ~69.7 nM

B3: K194E (protein)
chain: B2 chain with H236Q
[4]
  Kd: ~71.7 nM

B4: H270Y (protein)
chain: B2 chain with E194K, H236Q, H270Y
[4]
  Kd: ~276 nM
[3]
  Kd: ~465 nM

B5: Q236H (protein)
chain: B2 chain with E194K
[3]
  Kd: ~346 nM

B6: F269Y (protein)
chain: B2 chain with E194K, H236Q, F269Y
[4]
  Kd: ~33.3 nM

B7: WT-SM htRANKL (homotrimeric mouse RANKL with the solubility mutations C220S/I246E) (ligand)
chain: QPFAHLTINAASIPSGSHKVTLSSWYHDRGWAKISNMTLSNGKLRVNQDGFYYLYANISFRHHETSGSVPTDYLQLMVYVVKTSEKIPSSHNLMKGGSTKNWSGNSEFHFYSINVGGFFKLRAGEEISIQVSNPSLLDPDQDATYFGAFKVQDID
notes: The format differs by assay; also called WT-SM RANKL; WT htRANKL
[5]
  fold decrease in binding against WT htRANKL without the solubility mutations: ~10 fold
[6]
  Kd: 30.5 nM
[7]
  Kd: 30.5 nM
[8]
  Kd: 1400 nM
[9]
  Kd: 1400 nM
[4]
  Kd: ~32.8 nM
[10]
  t1/2 (dissociation time): 0.05 min

B8: KQF htRANKL (K194E, Q236H, F269Y) (ligand)
chain: B7 chain with K33E, Q75H, F108Y
[3]
  Kd: ~23.6 nM

B9: wild-type homotrimeric RANKL without the solubility mutations (WT htRANKL as compared with WT-SM htRANKL in FIG. 5 and FIG. 11) (ligand)
chain: B7 chain with S59C, E85I
[6]
  Kd: 4.75 nM
[8]
  Kd: 1230 nM

B10: KQFH htRANKL (K194E, Q236H, F269Y, H270Y) (ligand)
chain: B7 chain with K33E, Q75H, F108Y, H109Y
notes: also called RANK^high variant
[9]
  Kd: 3.37 nM
[11]
  binding result: no binding
[3]
  Kd: ~1.4 nM
[12]
  fold greater affinity than wild-type htRANKL: ~500 fold
  fold longer dissociation time than WT htRANKL: 200 fold
  t1/2 (dissociation time): 11.2 min

B11: double-block, RANK^high scRANKL (ligand)
chain: QPFAHLTINAASIPSGSHKVTLSSWYHDRGWAKISNMTLSNGKLRVNQDGFYYLYANISFRGGSHHETSGSVPTDYLHLMVYVVKTSEKIPSSHNLMKGGSTKNWSGNSEFHFYSINVGGFFKLRAGEEISIQVSNPSLLDPDQDATYFGAFKVQDIDGGSGGGSGGGSGQPFAHLTINAASIPSGSHKVTLSSWYHDRGWAKISNMTLSNGKLRVNQDGFYYLYANISFRGGSHHETSGSVPTDYLHLMVYVVKTSEKIPSSHNLMKGGSTKNWSGNSEFHFYSINVGGFFKLRAGEEISIQVSNPSLLDPDQDATYFGAFKVQDIDGGSGGGSGGGSGQPFAHLTINAASIPSGSHKVTLSSWYHDRGWAEISNMTLSNGKLRVNQDGFYYLYANISFRHHETSGSVPTDYLHLMVYVVKTSEKIPSSHNLMKGGSTKNWSGNSEYYFYSINVGGFFKLRAGEEISIQVSNPSLLDPDQDATYFGAFKVQDIDSSGRENLYFQ
[13]
  IC50 of inhibition of signaling / osteoclast formation stimulated by wild-type htRANKL (TRAP activity, FIG. 4D): ~10 nM

B12: single-block, RANK^high scRANKL (ligand)
chain: QPFAHLTINAASIPSGSHKVTLSSWYHDRGWAKISNMTLSNGKLRVNQDGFYYLYANISFRGGSHHETSGSVPTDYLHLMVYVVKTSEKIPSSHNLMKGGSTKNWSGNSEFHFYSINVGGFFKLRAGEEISIQVSNPSLLDPDQDATYFGAFKVQDIDGGSGGGSGGGSGQPFAHLTINAASIPSGSHKVTLSSWYHDRGWAEISNMTLSNGKLRVNQDGFYYLYANISFRHHETSGSVPTDYLHLMVYVVKTSEKIPSSHNLMKGGSTKNWSGNSEYYFYSINVGGFFKLRAGEEISIQVSNPSLLDPDQDATYFGAFKVQDIDGGSGGGSGGGSGQPFAHLTINAASIPSGSHKVTLSSWYHDRGWAEISNMTLSNGKLRVNQDGFYYLYANISFRHHETSGSVPTDYLHLMVYVVKTSEKIPSSHNLMKGGSTKNWSGNSEYYFYSINVGGFFKLRAGEEISIQVSNPSLLDPDQDATYFGAFKVQDIDSSGRENLYFQ
[13]
  IC50 of inhibition of signaling / osteoclast formation stimulated by wild-type htRANKL (TRAP activity, FIG. 4D): 0.2 nM

Reference: patent US20200199196A1 (WASHINGTON UNIVERSITY, published 2020)
